Measured values: paper PMC11885566

Target: stable soluble Omicron EG.5.1 (6P) S trimer (SARS-CoV-2)
Assay: cryo-EM structure

## stable soluble Omicron EG.5.1 (6P) S trimer (domain or fragment)
  stoichiometry N: 3
